Assay results from US9987370B2, “Self-assembling drug amphiphiles and methods for synthesis and use” (priority 2012, dated 2018).
Side chains are listed from the residue outwards. Ends that are not written are not given here. Peptide text beside a SMILES is read from it. * marks the point of attachment. X1 = CC(=O)N[C@@H](CSSCCCC(=O)O[C@@H](C(=O)O[C@H]1C[C@@]2(O)[C@@H](OC(=O)c3ccccc3)[C@@H]3[C@]4(OC(C)=O)CO[C@@H]4C[C@H](O)[C@@]3(C)C(=O)[C@H](OC(C)=O)C(=C1C)C2(C)C)[C@@H](NC(=O)c1ccccc1)c1ccccc1)C(=O)*; Paclitaxel(2'-OCO(CH2)3S) = CC(=O)O[C@H]1C(=O)[C@@]2(C)[C@H]([C@H](OC(=O)c3ccccc3)[C@]3(O)C[C@H](OC(=O)[C@H](OC(=O)CCCS*)[C@@H](NC(=O)c4ccccc4)c4ccccc4)C(C)=C1C3(C)C)[C@]1(OC(C)=O)CO[C@@H]1C[C@@H]2O; buSS = disulfanylbutanoate linker

What was measured:
[1] = tested on: co-culture of KB-3-1 and KB-V1 cervical cancer cells; conditions: co-culture KB-3-1 and KB-V1, 48 hours
Procedure: Cell viability was determined by SRB assay after 48 hours incubation with the appropriate drug-containing media. […] Data are given as mean±s.d. (n=3).
Cell Culture. KB-3-1 and KB-V1 ovarian cancer cells were cultured in DMEM (Invitrogen) containing 10% fetal bovine serum (FBS, Invitrogen) and 1% of antibiotics (Invitrogen), and 1 μg/mL vinblastine was added for KB-V1 to maintain its multidrug resistance. The two cell types were incubated at 37° C. in an Oasis humidified incubator with a 5% CO2 atmosphere (Caron, Marietta, Ohio).
Cytotoxicity Protocol. KB-3-1, KB-V1 or their co-culture (1:1) were seeded onto 96-well plate (5×10^3 cells/well) and allowed to attach overnight. […] Medium containing the same concentration of PXL or/and CPT in the form of free drugs or conjugates (dCPT-Sup35 or dPXL-Sup35) were also used to incubate the cells, with non-treated cells (solvent only) as the control group. After 48 hours incubation, the cell viability was determined using the SRB method according to the manufacturer's protocol (TOX-6, Sigma, St. Louis, Mo.).

[2] = tested on: PXL-resistant KB-V1 cervical cancer cells; experiment: Cytotoxicity study of dual drug amphiphiles by SRB; assay type: cell-based; conditions: KB-V1, 48 hours
Procedure: (§1) Both cell lines are sensitive to CPT. […] (n=3).
(§2) Cytotoxicity Study. The activity of the synthesized conjugates to prohibit proliferative ability was assessed through the determination of a dose-response relationship against PXL-sensitive and -resistant cervical cancer cell lines—KB-3-1 and KB-V1, respectively. Both cell lines were individually incubated for 48 hours with the conjugates alone or in combination, either individually to determine their sensitivity to the conjugates (FIGS. 46 a-b) and also as a co-culture to mimic a heterogeneous tumor (FIG. 46 c). […] This antagonistic behavior has been previously observed, and is suspected to arise from an up-regulation of anti-apoptosis genes on co-treatment with CPT that would inhibit the mechanism by which PXL exerts its cytotoxicity.

[3] = tested on: PXL-sensitive KB-3-1 cervical cancer cells; experiment: Cytotoxicity study of dual drug amphiphiles by SRB; assay type: cell-based; conditions: KB-3-1, 48 hours
Procedure: as §1, §2

[4] = PXL release study in PBS buffer at 37° C.; assay type: physicochemical
Procedure: FIG. 32 depicts the PXL-buSS-Tau release curve in PBS buffer under 37° C.
PXL release studies were carried out at 100 μM and 5 μM concentrations in PBS buffer at 37° C. (FIG. 32). […] After 2 hrs, around 70% of the PXL-buSS-Tau was cleaved by glutathione at 5 μM while only 40% paclitaxel was released at 100 μM, again illustrating the protective effect that self-assembly into nanostructures has upon the biodegradable linker.

[5] = tested on: human breast cancer MCF-7; assay type: cell-based
Procedure: (§3) To evaluate anti-tumor efficacy, the cytotoxicity of PXL-buSS-Tau towards human breast cancer MCF-7, non-small cell lung cancer A549, and human prostate cancer PC-3 FLU cell lines was determined (FIG. 33).

[6] = tested on: non-small cell lung cancer A549; assay type: cell-based, human
Procedure: as §3

[7] = tested on: human prostate cancer PC-3 FLU; experiment: Cytotoxicity of PXL-buSS-Tau by SRB assay; assay type: cell-based; conditions: 48 hours
Procedure: as §3

[8] = Critical micellization concentration of CPT drug amphiphiles by a fluorescence method; assay type: physicochemical; conditions: 10 mM sodium phosphate
Procedure: FIGS. 5A-5C depicts the fluorometric determination of the CMC values for mCPT-buSS-Tau (a), dCPT-buSS-Tau (b) and qCPT-buSS-Tau (c) in 10 mM sodium phosphate.
The critical micellization concentrations of mCPT-buSS-Tau, dCPT-buSS-Tau and qCPT-buSS-Tau were determined to be 207 nM, 74 nM and 53 nM, respectively, by a fluorescence method (FIG. 5). These very low values are in the range of macromolecular amphiphiles and are an important property of these conjugates. A high value would lead to rapid dissociation of the nanostructure when diluted upon introduction into the bloodstream, whereas a low value would impart greater stability to the assembly during circulation.

For CC[C@@]1(O)C(=O)OCc2c1cc1n(c2=O)Cc2cc3ccccc3nc2-1 [CPT, camptothecin], the activity [1] was “moderate activity”.
For CC(=O)O[C@H]1C(=O)[C@@]2(C)[C@H]([C@H](OC(=O)c3ccccc3)[C@]3(O)C[C@H](OC(=O)[C@H](O)[C@@H](NC(=O)c4ccccc4)c4ccccc4)C(C)=C1C3(C)C)[C@]1(OC(C)=O)CO[C@@H]1C[C@@H]2O [PXL, paclitaxel, reference compound], the “sensitivity of cells / activity” value [2] was “no activity”.
In the case of CC(=O)N[C@@H](CSSCCCC(=O)O[C@@H](C(=O)O[C@H]1C[C@@]2(O)[C@@H](OC(=O)c3ccccc3)[C@@H]3[C@]4(OC(C)=O)CO[C@@H]4C[C@H](O)[C@@]3(C)C(=O)[C@H](OC(C)=O)C(=C1C)C2(C)C)[C@@H](NC(=O)c1ccccc1)c1ccccc1)C(=O)NCCCC[C@H](NC(=O)[C@H](CSSCCCC(=O)O[C@@H](C(=O)O[C@H]1C[C@@]2(O)[C@@H](OC(=O)c3ccccc3)[C@@H]3[C@]4(OC(C)=O)CO[C@@H]4C[C@H](O)[C@@]3(C)C(=O)[C@H](OC(C)=O)C(=C1C)C2(C)C)[C@@H](NC(=O)c1ccccc1)c1ccccc1)NC(C)=O)C(=O)NCC(=O)N[C@@H](CC(N)=O)C(=O)N[C@@H](CC(N)=O)C(=O)N[C@@H](CCC(N)=O)C(=O)N[C@@H](CCC(N)=O)C(=O)N[C@@H](CC(N)=O)C(=O)N[C@@H](Cc1ccc(O)cc1)C(=O)N[C@@H](CCCCN)C(=O)N[C@@H](CCCCN)C(N)=O [dPXL-Sup35] (Ac-C(Paclitaxel(2'-OCO(CH2)3S))K(X1)GNNQQNYKK-NH2), the “sensitivity of cells / activity” value [2] was “no activity” and the sensitivity of cells [3] was “nano-molar sensitivity”.
With “PXL-buSS-Tau (Ac-CGVQIVYKK; also: PXL-buSS conjugate, attachment site not given here)” the “PXL-buSS-Tau cleaved by glutathione” value ([4]; 5 μM, after 2 hrs, PBS, 37° C., glutathione) was “around 70%”, the “release at 5 μM compared with 100 μM” value ([4]; 5 μM, presence of glutathione) was “much faster release than that of 100 μM” and the release of paclitaxel ([4]; 100 μM, after 30 minutes, presence of glutathione) was “Significant release of paclitaxel”. The paclitaxel released ([4]; 100 μM, after 2 hrs, PBS, 37° C., glutathione) was 40%, the cytotoxic effect [5] was “strong cytotoxic effect” and the cytotoxic effect [6] was “strong cytotoxic effect”. The cytotoxic effect [7] was “strong cytotoxic effect”.
In the case of “mCPT-buSS-Tau: one camptothecin linked via disulfanylbutanoate (buSS) linker to cysteine-functionalized Tau peptide CGVQIVYKK (C([buSS-camptothecin])GVQIVYKK; not fully specified (C-terminus))”, the critical micellization concentration [8] was 207 nM.
